Test results reported in patent publication US20230380451A1, “MEANS AND METHODS TO DETOXIFY MYCOTOXINS” (priority 2020, published 2023).

Experiments:
[1] = Storage stability in storage buffer at different temperatures, residual DON transformation activity; format: biochemical; details: for Relative DON transformation activity: storage buffer
Protocol: (§1) To determine the transformation of DON to epi-THS by Akr I-III, described herein, the following assay was performed. An assay buffer was prepared containing 40 ppm DON, 1 mM NADPH in Teorell Stenhagen (TS) buffer, pH 6.0 (Östling and Virtama, Acta Physiologica Scandinavica, 1946, 11:4, 289-293). Tubes containing the assay buffer were transferred in a heating block at 30° C. The reaction was started by addition of Akr I-III to a final concentration of 200 nM in a final reaction volume of 200 μL. Samples were taken before reaction start, and 2, 5, 10, 15 and 20 min after reaction start. DON transformation reactions in these samples were stopped by mixing with absolute methanol at a 1:2 ratio, followed by a 1:100 dilution with 40% methanol. The concentrations of DON and epi-THS in the samples were determined with liquid chromatography-mass spectrometry (LC-MS) on a Sciex 5500 triple quadrupole mass spectrometer coupled to Agilent 1290 series UHPLC system, using the following MS parameters: Acquisition duration: 4 min; Scan Type: MRM (MRM); Polarity: Negative; Ion Source: Turbo Spray.
The storage stability of Akr I-III was tested by incubation of 5 μM enzyme solutions in storage buffer (50 mM Tris pH 9.0, 0.5M NaCl, 50% Glycerol), for 60 min in a thermocycler (Mastercycler, Eppendorf) set to gradient mode from 30° C. to 50° C. Throughout the incubation, samples were removed and placed on ice until DON transformation assays were performed as described in Example 3 to determine enzyme activities. The starting activity at time 0 min was set to 100% and the relative residual activities were determined throughout the incubation. Akr I retained more than 33% activity during 60 min in pH 6 at temperatures from 29.9° C. to 46.0° C. Akr III retained 15% to 90% activity during 20 min in pH 6 at temperatures from 29.9° C. to 40.7° C.

[2] = Kinetic parameters of DON transformation (Michaelis-Menten fit); format: biochemical; details: 200 nM enzyme, TS buffer pH 6.0, 1 mM NADPH
Protocol: as §1
Kinetic parameters were determined by performing the DON transformation assay as described in Example 3. Akr I-III were used at a final concentration of 200 nM in Teorell Stenhagen (TS) buffer, pH 6.0 (Ostling and Virtama, Acta Physiologica Scandinavica, 1946, 11:4, 289-293) further containing 1 mM NADPH and DON at a concentration of either 3.38 μM, 33.78 μM, 135.14 μM, 270.27 μM or 1182.43 μM. The observed reaction rates and the corresponding DON concentrations were fitted to the Michaelis-Menten function used to describe enzyme kinetics. The fitting was done using the program SigmaPlot (Systat Software Inc.) to calculate the maximum DON transformation rate of Akr I-III in the assay (Vmax), the Michaelis constant (KM) and the turnover number (kcat). […].

B1: Akr I: artificial amino acid sequence, variant of a wild type aldo-keto reductase (protein)
chain: MRTTEISQGLKVSNLCIGAGPLGGMPTAFGYDVSEERGIATVQAVFDSPINFMDTSSEYGDSEVRIGKVIREGRMPKGFVIATKADAEGDGTARRGDFSAKQVRASFELSLERLGLTHIDVYFLHDPEKFPFEHVMARGGAMEELLRLKDEGLVGLVGVAGGDVVEMARYVDTGNLDILLNYGRYTLLDRSADSLIDKASDAGMAFLNAGPYASGLLAAPRGGSAWYQYAPPNADALQAVDQLHELCESFDVSLRSVALQFSMRDPRITSTVVGLSRPERVRALLDDAAAEIPAELWDQLPAPLNLPWNSLA
modifications: ArkI
**Q.** Which retained activity ([1]; during 60 min in pH 6 at temperatures from 29.9° C. to 46.0° C.) does the source give for B1 here?
**A.** more than 33%

**Q.** What about the “Relative DON transformation activity” value ([1]; 29.9° C., 0 min (starting activity set to 100%)) of the same molecule?
**A.** 100.00%

**Q.** And the “Relative DON transformation activity” value ([1]; 29.9° C., 5 min)?
**A.** 121.5%

**Q.** What about the “Relative DON transformation activity” value ([1]; 29.9° C., 10 min) of the same molecule?
**A.** 114.8%

**Q.** And the “Relative DON transformation activity” value ([1]; 29.9° C., 20 min)?
**A.** 118.9%

**Q.** What about the “Relative DON transformation activity” value ([1]; 29.9° C., 35 min) of the same molecule?
**A.** 106.2%

**Q.** What about the “Relative DON transformation activity” value ([1]; 29.9° C., 50 min) of the same molecule?
**A.** 70.1%

**Q.** What about the “Relative DON transformation activity” value ([1]; 29.9° C., 60 min) of the same molecule?
**A.** 53.7%

**Q.** And the “Relative DON transformation activity” value ([1]; 35.3° C., 0 min (starting activity set to 100%))?
**A.** 100.00%

**Q.** What about the “Relative DON transformation activity” value ([1]; 35.3° C., 5 min) of the same molecule?
**A.** 132.8%

**Q.** What about the “Relative DON transformation activity” value ([1]; 35.3° C., 10 min) of the same molecule?
**A.** 97.7%

**Q.** And the “Relative DON transformation activity” value ([1]; 35.3° C., 20 min)?
**A.** 101.5%

**Q.** And the “Relative DON transformation activity” value ([1]; 35.3° C., 35 min)?
**A.** 109.7%

**Q.** What about the “Relative DON transformation activity” value ([1]; 35.3° C., 50 min) of the same molecule?
**A.** 84.6%

**Q.** What about the “Relative DON transformation activity” value ([1]; 35.3° C., 60 min) of the same molecule?
**A.** 47.0%

**Q.** And the “Relative DON transformation activity” value ([1]; 37.9° C., 0 min (starting activity set to 100%))?
**A.** 100.00%

**Q.** What about the “Relative DON transformation activity” value ([1]; 37.9° C., 5 min) of the same molecule?
**A.** 130.1%

**Q.** And the “Relative DON transformation activity” value ([1]; 37.9° C., 10 min)?
**A.** 101.4%

**Q.** And the “Relative DON transformation activity” value ([1]; 37.9° C., 20 min)?
**A.** 110.1%

**Q.** And the “Relative DON transformation activity” value ([1]; 37.9° C., 35 min)?
**A.** 109.0%

**Q.** And the “Relative DON transformation activity” value ([1]; 37.9° C., 50 min)?
**A.** 77.0%

**Q.** And the “Relative DON transformation activity” value ([1]; 37.9° C., 60 min)?
**A.** 48.6%

**Q.** What about the “Relative DON transformation activity” value ([1]; 40.7° C., 0 min (starting activity set to 100%)) of the same molecule?
**A.** 100.00%

**Q.** What about the “Relative DON transformation activity” value ([1]; 40.7° C., 5 min) of the same molecule?
**A.** 130.2%

**Q.** And the “Relative DON transformation activity” value ([1]; 40.7° C., 10 min)?
**A.** 100.7%

**Q.** What about the “Relative DON transformation activity” value ([1]; 40.7° C., 20 min) of the same molecule?
**A.** 60.5%

**Q.** What about the “Relative DON transformation activity” value ([1]; 40.7° C., 35 min) of the same molecule?
**A.** 95.8%

**Q.** What about the “Relative DON transformation activity” value ([1]; 40.7° C., 50 min) of the same molecule?
**A.** 76.1%

**Q.** And the “Relative DON transformation activity” value ([1]; 40.7° C., 60 min)?
**A.** 50.0%

**Q.** And the “Relative DON transformation activity” value ([1]; 43.4° C., 0 min (starting activity set to 100%))?
**A.** 100.00%

**Q.** And the “Relative DON transformation activity” value ([1]; 43.4° C., 5 min)?
**A.** 133.6%

**Q.** What about the “Relative DON transformation activity” value ([1]; 43.4° C., 10 min) of the same molecule?
**A.** 111.3%

**Q.** And the “Relative DON transformation activity” value ([1]; 43.4° C., 20 min)?
**A.** 79.1%

**Q.** And the “Relative DON transformation activity” value ([1]; 43.4° C., 35 min)?
**A.** 75.2%

**Q.** And the “Relative DON transformation activity” value ([1]; 43.4° C., 50 min)?
**A.** 60.2%

**Q.** What about the “Relative DON transformation activity” value ([1]; 43.4° C., 60 min) of the same molecule?
**A.** 52.9%

**Q.** And the “Relative DON transformation activity” value ([1]; 46.0° C., 0 min (starting activity set to 100%))?
**A.** 100.00%

**Q.** And the “Relative DON transformation activity” value ([1]; 46.0° C., 5 min)?
**A.** 125.9%

**Q.** What about the “Relative DON transformation activity” value ([1]; 46.0° C., 10 min) of the same molecule?
**A.** 123.1%

**Q.** What about the “Relative DON transformation activity” value ([1]; 46.0° C., 20 min) of the same molecule?
**A.** 83.4%

**Q.** What about the “Relative DON transformation activity” value ([1]; 46.0° C., 35 min) of the same molecule?
**A.** 61.8%

**Q.** What about the “Relative DON transformation activity” value ([1]; 46.0° C., 50 min) of the same molecule?
**A.** 3.0%

**Q.** What about the “Relative DON transformation activity” value ([1]; 46.0° C., 60 min) of the same molecule?
**A.** 33.1%

**Q.** And the “Relative DON transformation activity” value ([1]; 50.8° C., 0 min (starting activity set to 100%))?
**A.** 100.00%

**Q.** And the “Relative DON transformation activity” value ([1]; 50.8° C., 5 min)?
**A.** 118.6%

**Q.** And the “Relative DON transformation activity” value ([1]; 50.8° C., 10 min)?
**A.** 44.2%

**Q.** What about the “Relative DON transformation activity” value ([1]; 50.8° C., 20 min) of the same molecule?
**A.** 16.3%

**Q.** And the “Relative DON transformation activity” value ([1]; 50.8° C., 35 min)?
**A.** 4.9%

**Q.** And the “Relative DON transformation activity” value ([1]; 50.8° C., 50 min)?
**A.** 7.5%

**Q.** What about the “Relative DON transformation activity” value ([1]; 50.8° C., 60 min) of the same molecule?
**A.** 0%

**Q.** What about the “Vmax (maximum DON transformation rate)” value [2] of the same molecule?
**A.** 8471 U/mg

**Q.** And the “kcat (turnover number)” value [2]?
**A.** 5.08 s⁻¹

**Q.** What about the Km ([2]; substrate DON, read-out: KM (Michaelis constant)) of the same molecule?
**A.** 143 µM
